According to paper PMC314469, “Protein Interaction Networks by Proteome Peptide Scanning” (PLoS Biology, 2004):

T1: Abp1 SH3 (ABP1_YEAST), P15891
T1 chain: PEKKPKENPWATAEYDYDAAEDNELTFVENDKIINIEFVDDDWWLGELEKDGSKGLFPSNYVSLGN


Target: T1, Abp1 SH3 (ABP1_YEAST), P15891
Assay: SPOT array

| normalised SPOT signal, Boehringer light units (BLU); mean over the file's lines of this peptide | Binder |
| --- | --- |
| 1000 | DKYSTLRPGIPLKP [YDL164C 380-393] |
| 76 | DLHTHNLHTIPRKP [YNL042W 273-286] |
| 33.3 | DHVDIFVPSGGRP [YDL215C 852-864] |
| 85.7 | DIEMKDVSSKPSKP [YPR070W 510-523] |
| 183 | DKKIGSMAINPMRP [YDL156W 333-346] |
| 131 | DILDDLSSQKPQKP [YJR033C 1330-1343] |
| 257 | DIDMPVNPPFRKP [YBL015W 191-203] |
| 122 | DHHNIDIDPLPRRP [YLR299W 80-93] |
| 65.6 | DIADLEEPFLPRP [YIL109C 377-389] |
| 77.3 | DHGLYNFPSSVRP [YGR271W 1320-1332] |
| 2060 | DLPRLKWSAIPVRP [YMR265C 218-231] |
| 66.6 | DKVFIPDPKTGRP [YAL054C 106-118] |
| 2860 | DKQLIWHKSKPVKP [YBL005W-B 1588-1601] |
| 440 | DLKSRVLPHLKKP [YNL241C 60-72] |
| 86.6 | DLNNLKHPSKGRP [YMR304W 152-164] |
| 23.2 | DLPEYLLPPDLKP [YDR477W 309-321] |
| 36.5 | DKKDLDSPIEVKP [YKL092C 848-860] |
| 27100 | DLTVLRKPQQLRP [YDR488C 342-354] |
| 98 | DHPKLKSPISSKP [YPR186C 218-230] |
| 89.2 | DLEFIYDTFHPFKP [YPL009C 301-314] |
| 377 | DKTRSSLHFKPMRP [YNL023C 749-762] |
| 1730 | DKQLIWHKNKPTKP [YBL101W-B 1603-1616] |
| 84.6 | DLNDSGFPPKRKP [YMR275C 4-16] |
